Reference: US20210139548A1 (published 2021)
*1 amine or outer side, *2 acyl side, *3 side chain or, on linkers, in order; H or OH if unused. Side-chain parts run from the residue outwards. The star is where a group is joined. C18 diacid = O=C(O)CCCCCCCCCCCCCCCCC(=O)*; γGlu = O=C(O)[C@H](CCC(=O)[*:2])N[*:1]; Isovaleryl = CC(C)CC(=O)*; AEEA = NCCOCCOCC(=O)O

T1: human neuropeptide Y2 receptor (human, UniProt P49146 1-381)
T1 construct: whole, on cells; also called hNPY2 receptor; hNPY2-R
T1 sequence (looked up): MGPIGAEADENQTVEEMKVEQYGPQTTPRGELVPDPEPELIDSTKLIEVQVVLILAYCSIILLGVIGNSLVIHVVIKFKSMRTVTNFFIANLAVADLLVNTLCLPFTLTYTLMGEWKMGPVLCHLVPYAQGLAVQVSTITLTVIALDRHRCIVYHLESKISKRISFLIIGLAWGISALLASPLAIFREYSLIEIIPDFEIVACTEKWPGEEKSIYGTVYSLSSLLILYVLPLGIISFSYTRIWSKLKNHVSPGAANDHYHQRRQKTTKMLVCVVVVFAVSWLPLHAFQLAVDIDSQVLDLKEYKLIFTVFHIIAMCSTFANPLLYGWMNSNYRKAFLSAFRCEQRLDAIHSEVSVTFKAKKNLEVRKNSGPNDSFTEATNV


Molecular target: T1, human neuropeptide Y2 receptor
Test: radioligand competition (125I-PYY(1-36)), hNPY2R membranes
Outline: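 Commercial human Y2 receptor membranes (0.5 μg protein/well) were incubated with peptide for 2 h at room temperature in 50 mM HEPES, 5 mM MgCl₂, 1 mM CaCl₂, pH 7.4, with 0.2% ovalbumin. Bound radioligand was separated on PEI-soaked GF/C filters and counted by scintillation, and IC₅₀ came from nonlinear sigmoidal regression.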

Ki | Binder
0.93 nM | Isovaleryl-APAK([AEEA-AEEA-γGlu-C18 diacid])PEEDASPEELEQYYVSLRHYYNWLTRQRY-NH2 (SMILES CC(C)CC(=O)N[C@@H](C)C(=O)N1CCC[C@H]1C(=O)N[C@@H](C)C(=O)N[C@@H](CCCCNC(=O)COCCOCCNC(=O)COCCOCCNC(=O)CC[C@H](NC(=O)CCCCCCCCCCCCCCCCC(=O)O)C(=O)O)C(=O)N1CCC[C@H]1C(=O)N[C@@H](CCC(=O)O)C(=O)N[C@@H](CCC(=O)O)C(=O)N[C@@H](CC(=O)O)C(=O)N[C@@H](C)C(=O)N[C@@H](CO)C(=O)N1CCC[C@H]1C(=O)N[C@@H](CCC(=O)O)C(=O)N[C@@H](CCC(=O)O)C(=O)N[C@@H](CC(C)C)C(=O)N[C@@H](CCC(=O)O)C(=O)N[C@@H](CCC(N)=O)C(=O)N[C@@H](Cc1ccc(O)cc1)C(=O)N[C@@H](Cc1ccc(O)cc1)C(=O)N[C@H](C(=O)N[C@@H](CO)C(=O)N[C@@H](CC(C)C)C(=O)N[C@@H](CCCNC(=N)N)C(=O)N[C@@H](Cc1c[nH]cn1)C(=O)N[C@@H](Cc1ccc(O)cc1)C(=O)N[C@@H](Cc1ccc(O)cc1)C(=O)N[C@@H](CC(N)=O)C(=O)N[C@@H](Cc1c[nH]c2ccccc12)C(=O)N[C@@H](CC(C)C)C(=O)N[C@H](C(=O)N[C@@H](CCCNC(=N)N)C(=O)N[C@@H](CCC(N)=O)C(=O)N[C@@H](CCCNC(=N)N)C(=O)N[C@@H](Cc1ccc(O)cc1)C(N)=O)[C@@H](C)O)C(C)C) [Compound 216]
7.6 nM | Isovaleryl-APEK([AEEA-AEEA-γGlu-C18 diacid])PEEEAAPEELQRYYVSLRHYYNWLTRQRY-NH2 (SMILES CC(C)CC(=O)N[C@@H](C)C(=O)N1CCC[C@H]1C(=O)N[C@@H](CCC(=O)O)C(=O)N[C@@H](CCCCNC(=O)COCCOCCNC(=O)COCCOCCNC(=O)CC[C@H](NC(=O)CCCCCCCCCCCCCCCCC(=O)O)C(=O)O)C(=O)N1CCC[C@H]1C(=O)N[C@@H](CCC(=O)O)C(=O)N[C@@H](CCC(=O)O)C(=O)N[C@@H](CCC(=O)O)C(=O)N[C@@H](C)C(=O)N[C@@H](C)C(=O)N1CCC[C@H]1C(=O)N[C@@H](CCC(=O)O)C(=O)N[C@@H](CCC(=O)O)C(=O)N[C@@H](CC(C)C)C(=O)N[C@@H](CCC(N)=O)C(=O)N[C@@H](CCCNC(=N)N)C(=O)N[C@@H](Cc1ccc(O)cc1)C(=O)N[C@@H](Cc1ccc(O)cc1)C(=O)N[C@H](C(=O)N[C@@H](CO)C(=O)N[C@@H](CC(C)C)C(=O)N[C@@H](CCCNC(=N)N)C(=O)N[C@@H](Cc1c[nH]cn1)C(=O)N[C@@H](Cc1ccc(O)cc1)C(=O)N[C@@H](Cc1ccc(O)cc1)C(=O)N[C@@H](CC(N)=O)C(=O)N[C@@H](Cc1c[nH]c2ccccc12)C(=O)N[C@@H](CC(C)C)C(=O)N[C@H](C(=O)N[C@@H](CCCNC(=N)N)C(=O)N[C@@H](CCC(N)=O)C(=O)N[C@@H](CCCNC(=N)N)C(=O)N[C@@H](Cc1ccc(O)cc1)C(N)=O)[C@@H](C)O)C(C)C) [Compound 219]
2.99 nM | Isovaleryl-APEK([AEEA-AEEA-γGlu-C18 diacid])PEEAASAEELQRYYVSLRHYYNWLTRQRY-NH2 (SMILES CC(C)CC(=O)N[C@@H](C)C(=O)N1CCC[C@H]1C(=O)N[C@@H](CCC(=O)O)C(=O)N[C@@H](CCCCNC(=O)COCCOCCNC(=O)COCCOCCNC(=O)CC[C@H](NC(=O)CCCCCCCCCCCCCCCCC(=O)O)C(=O)O)C(=O)N1CCC[C@H]1C(=O)N[C@@H](CCC(=O)O)C(=O)N[C@@H](CCC(=O)O)C(=O)N[C@@H](C)C(=O)N[C@@H](C)C(=O)N[C@@H](CO)C(=O)N[C@@H](C)C(=O)N[C@@H](CCC(=O)O)C(=O)N[C@@H](CCC(=O)O)C(=O)N[C@@H](CC(C)C)C(=O)N[C@@H](CCC(N)=O)C(=O)N[C@@H](CCCNC(=N)N)C(=O)N[C@@H](Cc1ccc(O)cc1)C(=O)N[C@@H](Cc1ccc(O)cc1)C(=O)N[C@H](C(=O)N[C@@H](CO)C(=O)N[C@@H](CC(C)C)C(=O)N[C@@H](CCCNC(=N)N)C(=O)N[C@@H](Cc1c[nH]cn1)C(=O)N[C@@H](Cc1ccc(O)cc1)C(=O)N[C@@H](Cc1ccc(O)cc1)C(=O)N[C@@H](CC(N)=O)C(=O)N[C@@H](Cc1c[nH]c2ccccc12)C(=O)N[C@@H](CC(C)C)C(=O)N[C@H](C(=O)N[C@@H](CCCNC(=N)N)C(=O)N[C@@H](CCC(N)=O)C(=O)N[C@@H](CCCNC(=N)N)C(=O)N[C@@H](Cc1ccc(O)cc1)C(N)=O)[C@@H](C)O)C(C)C) [Compound 220]
1.49 nM | Isovaleryl-APEK([AEEA-AEEA-γGlu-C18 diacid])PEEDSSPEELQRYYVALRHYYNWLTRQRY-NH2 (SMILES CC(C)CC(=O)N[C@@H](C)C(=O)N1CCC[C@H]1C(=O)N[C@@H](CCC(=O)O)C(=O)N[C@@H](CCCCNC(=O)COCCOCCNC(=O)COCCOCCNC(=O)CC[C@H](NC(=O)CCCCCCCCCCCCCCCCC(=O)O)C(=O)O)C(=O)N1CCC[C@H]1C(=O)N[C@@H](CCC(=O)O)C(=O)N[C@@H](CCC(=O)O)C(=O)N[C@@H](CC(=O)O)C(=O)N[C@@H](CO)C(=O)N[C@@H](CO)C(=O)N1CCC[C@H]1C(=O)N[C@@H](CCC(=O)O)C(=O)N[C@@H](CCC(=O)O)C(=O)N[C@@H](CC(C)C)C(=O)N[C@@H](CCC(N)=O)C(=O)N[C@@H](CCCNC(=N)N)C(=O)N[C@@H](Cc1ccc(O)cc1)C(=O)N[C@@H](Cc1ccc(O)cc1)C(=O)N[C@H](C(=O)N[C@@H](C)C(=O)N[C@@H](CC(C)C)C(=O)N[C@@H](CCCNC(=N)N)C(=O)N[C@@H](Cc1c[nH]cn1)C(=O)N[C@@H](Cc1ccc(O)cc1)C(=O)N[C@@H](Cc1ccc(O)cc1)C(=O)N[C@@H](CC(N)=O)C(=O)N[C@@H](Cc1c[nH]c2ccccc12)C(=O)N[C@@H](CC(C)C)C(=O)N[C@H](C(=O)N[C@@H](CCCNC(=N)N)C(=O)N[C@@H](CCC(N)=O)C(=O)N[C@@H](CCCNC(=N)N)C(=O)N[C@@H](Cc1ccc(O)cc1)C(N)=O)[C@@H](C)O)C(C)C) [Compound 218]
4.77 nM | Isovaleryl-APEK([AEEA-AEEA-γGlu-C18 diacid])PEEAAEPEELQRYYVSLRHYYNWLTRQRY-NH2 (SMILES CC(C)CC(=O)N[C@@H](C)C(=O)N1CCC[C@H]1C(=O)N[C@@H](CCC(=O)O)C(=O)N[C@@H](CCCCNC(=O)COCCOCCNC(=O)COCCOCCNC(=O)CC[C@H](NC(=O)CCCCCCCCCCCCCCCCC(=O)O)C(=O)O)C(=O)N1CCC[C@H]1C(=O)N[C@@H](CCC(=O)O)C(=O)N[C@@H](CCC(=O)O)C(=O)N[C@@H](C)C(=O)N[C@@H](C)C(=O)N[C@@H](CCC(=O)O)C(=O)N1CCC[C@H]1C(=O)N[C@@H](CCC(=O)O)C(=O)N[C@@H](CCC(=O)O)C(=O)N[C@@H](CC(C)C)C(=O)N[C@@H](CCC(N)=O)C(=O)N[C@@H](CCCNC(=N)N)C(=O)N[C@@H](Cc1ccc(O)cc1)C(=O)N[C@@H](Cc1ccc(O)cc1)C(=O)N[C@H](C(=O)N[C@@H](CO)C(=O)N[C@@H](CC(C)C)C(=O)N[C@@H](CCCNC(=N)N)C(=O)N[C@@H](Cc1c[nH]cn1)C(=O)N[C@@H](Cc1ccc(O)cc1)C(=O)N[C@@H](Cc1ccc(O)cc1)C(=O)N[C@@H](CC(N)=O)C(=O)N[C@@H](Cc1c[nH]c2ccccc12)C(=O)N[C@@H](CC(C)C)C(=O)N[C@H](C(=O)N[C@@H](CCCNC(=N)N)C(=O)N[C@@H](CCC(N)=O)C(=O)N[C@@H](CCCNC(=N)N)C(=O)N[C@@H](Cc1ccc(O)cc1)C(N)=O)[C@@H](C)O)C(C)C) [Compound 223]
4.64 nM | Isovaleryl-APEK([AEEA-AEEA-γGlu-C18 diacid])PGEEASPEELEQYYVSLRHYYNWLTRQRY-NH2 (SMILES CC(C)CC(=O)N[C@@H](C)C(=O)N1CCC[C@H]1C(=O)N[C@@H](CCC(=O)O)C(=O)N[C@@H](CCCCNC(=O)COCCOCCNC(=O)COCCOCCNC(=O)CC[C@H](NC(=O)CCCCCCCCCCCCCCCCC(=O)O)C(=O)O)C(=O)N1CCC[C@H]1C(=O)NCC(=O)N[C@@H](CCC(=O)O)C(=O)N[C@@H](CCC(=O)O)C(=O)N[C@@H](C)C(=O)N[C@@H](CO)C(=O)N1CCC[C@H]1C(=O)N[C@@H](CCC(=O)O)C(=O)N[C@@H](CCC(=O)O)C(=O)N[C@@H](CC(C)C)C(=O)N[C@@H](CCC(=O)O)C(=O)N[C@@H](CCC(N)=O)C(=O)N[C@@H](Cc1ccc(O)cc1)C(=O)N[C@@H](Cc1ccc(O)cc1)C(=O)N[C@H](C(=O)N[C@@H](CO)C(=O)N[C@@H](CC(C)C)C(=O)N[C@@H](CCCNC(=N)N)C(=O)N[C@@H](Cc1c[nH]cn1)C(=O)N[C@@H](Cc1ccc(O)cc1)C(=O)N[C@@H](Cc1ccc(O)cc1)C(=O)N[C@@H](CC(N)=O)C(=O)N[C@@H](Cc1c[nH]c2ccccc12)C(=O)N[C@@H](CC(C)C)C(=O)N[C@H](C(=O)N[C@@H](CCCNC(=N)N)C(=O)N[C@@H](CCC(N)=O)C(=O)N[C@@H](CCCNC(=N)N)C(=O)N[C@@H](Cc1ccc(O)cc1)C(N)=O)[C@@H](C)O)C(C)C) [Compound 224]
